For one data set, the target named is T1, SPRTN full length (Homo sapiens, UniProt Q9H040 1-489).
T1 sequence: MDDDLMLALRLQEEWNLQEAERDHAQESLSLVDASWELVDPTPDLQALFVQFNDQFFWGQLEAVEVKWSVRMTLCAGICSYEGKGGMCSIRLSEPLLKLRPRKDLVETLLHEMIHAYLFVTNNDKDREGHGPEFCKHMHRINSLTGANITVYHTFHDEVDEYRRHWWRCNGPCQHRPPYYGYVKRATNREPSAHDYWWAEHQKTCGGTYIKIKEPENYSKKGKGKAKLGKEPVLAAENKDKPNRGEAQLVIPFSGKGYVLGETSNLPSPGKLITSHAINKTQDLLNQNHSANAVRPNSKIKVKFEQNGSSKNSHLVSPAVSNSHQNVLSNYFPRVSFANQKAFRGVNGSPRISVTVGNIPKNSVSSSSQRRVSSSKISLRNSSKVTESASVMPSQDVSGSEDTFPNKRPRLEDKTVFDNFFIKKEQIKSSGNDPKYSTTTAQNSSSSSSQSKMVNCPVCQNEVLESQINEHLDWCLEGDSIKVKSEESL
The data set can be described thus: EMSA; 5 uM ZnSO4; EMSA: 10 mM Tris-HCl pH 7.5, 0.2 mM DTT, 5 uM ZnSO4, 0.25 uM DNA, 30 uL, 30 min at 20 C, 1.5% agarose gel. The following applies: protein: recombinant, tags: Z-basic-His tag, TEV-cleaved (E. coli, pNIC-ZB).

Another data set has as its target T2, SPRTN-∆C (a.a. 1-216) (Homo sapiens, UniProt Q9H040 1-216).
T2 sequence: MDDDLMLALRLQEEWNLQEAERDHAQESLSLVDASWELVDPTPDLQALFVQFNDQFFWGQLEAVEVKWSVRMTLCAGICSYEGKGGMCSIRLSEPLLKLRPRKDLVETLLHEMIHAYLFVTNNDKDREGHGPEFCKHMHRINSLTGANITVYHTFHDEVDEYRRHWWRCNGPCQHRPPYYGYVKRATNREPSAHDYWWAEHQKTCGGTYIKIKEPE
The data set is described as above. As to conditions: protein: recombinant, tags: His tag (pNIC28-Bsa4), TEV-cleaved (E. coli).

Setting [1] is: label: 6-FAM (5' as drawn), single strand.
The mark [2] stands for this setting: label: 6-FAM on strand 1, blunt.

B1: 6-FAM-ssODN 39-mer (ssDNA)
DNA: GCGCGCCCATTGATACTAAATTCAAGGATGACTTATTTC
As to B1, the binding result was “binds” with SPRTN full length (setting [1]) and “no binding” in the data set with SPRTN-∆C (a.a. 1-216) (setting [1]).

B2: 6-FAM-dsODN 39-mer (dsDNA)
DNA 1: GCGCGCCCATTGATACTAAATTCAAGGATGACTTATTTC
DNA 2: GAAATAAGTCATCCTTGAATTTAGTATCAATGGGCGCGC
Turning to B2, the results for the binding result in the data set with SPRTN full length (setting [2]) and with SPRTN-∆C (a.a. 1-216) (setting [2]) were “binds” and “no binding”, respectively.

These data come from article PMC5127644, “SPRTN is a mammalian DNA-binding metalloprotease that resolves DNA-protein crosslinks”.
